Key:
human αvβ3 = molecular target: T1, human αvβ3 (Homo sapiens, UniProt P05106+P06756); assay: Solid phase binding assay (Vitronectin-Ru, integrin coated paramagnetic beads); details: FIGS. 4A and 4B
T1 construct: tissue Chemicon International Inc. (alternative source, catalogue number not given); host or cells: placenta
Method: (§1) Ruthenylation of Vitronectin and Fibrinogen. Purified human vitronectin or purified human fibrinogen (Calbiochem) was dialyzed into 50 mM borate, 100 mM NaCl pH 8.0. A stock solution of ruthenium (II) tris bipyridine N-hydroxysuccinimide ester (Origen TAG® Ester, Igen Inc. Gaithersburg, Md.) was freshly prepared by adding 50 μL DMSO to 150 μg of the Origen TAG-NHS ester. Fifty microliters of the Origen TAG-NHS ester was added to one fifth molar ratio of the matrix protein. After one hour incubation at […], the reaction was quench by the addition of 50 μL of 2 M glycine. Unincorporated ruthenium and excess glycine were removed by dialysis into PBS, 0.05% NaN3. Protein concentrations were determined using Micro-BCA (Pierce, Rockford, Ill.). Origen TAG incorporation was assessed at 455 nm (e=13,700 M^−1 cm^−1). Vitronectin-Ru and Fibrinogen-Ru were stored at −70° C. until needed. […]
(§2) Solid Phase Binding Assay. […] The assay mixture was incubated at 25° C. for two hours with agitation and subsequently read on an Origen Analyzer® (Igen Inc. Gaithersburg, Md.) Non-specific binding was determined using 1 μM Vitronectin, 1 μM Fibrinogen or 5 mM EDTA. The data was prepared using a four-parameter fit by the Levenburg Marquardt algorithm (XLfit® ID Business Solutions.) Ki values were calculated using the equation of Cheng and Prusoff (1973) Biochem. Pharmacology 22: 3099-3108.

GPIIb/IIIa = molecular target: T2, GPIIb/IIIa (Homo sapiens, UniProt P05106+P08514); assay: Inhibition of ruthenium-labeled human fibrinogen (fibrinogen-ru) binding to GPIIb/IIIa, solid phase binding assay; details: FIGS. 5A and 5B
T2 construct: The washed platelets were lysed in, 20 mM Tris-HCl pH 7.4, 140 mM NaCl, 2 mM CaCl2, 1 mM pefabloc, 3% octylglucoside; from tissue; host or cells: outdated platelets
Method: as §1, §2

HT1080 cells = assay: Effect on the growth of HT1080 cells; assay type: cell-based, human
Method: Laminin activity assay: Apoptosis of HT-1080 human fibrosarcoma cells. HT-1080 cells from a human fibrosarcoma are cultured in DMEM supplemented with 10% fetal bovine serum, 100 μg/ml streptomycin and 100 units/ml penicillin. The culture is started at a density of 5×10^4 cells per plate. The Fc-peptides (Fc-YIGSR, Fc-(YIGSR)2, YIGSR-Fc, or (YIGSR)2-Fc)) at various concentrations are added to each plate, and after 16 hours the cells are harvested for evaluation of apoptosis with crystal violet solution at 560 nm absorbance. The DNA fragmentation analysis is also carried out to assess the degree of apoptosis in a 1.5% agarose gel and visualized by ethidium bromide staining.
Two additional laminin peptides, (YIGSR)3 and (YIGSR)5 from Table 6 herein, were fused to human IgG1. Those fusion peptides were designated as laminin-3 ((YIGSR)3-Fc) and laminin-5 ((YIGSR)5-Fc). The purified peptide-Fc fusions were examined for their effect on the growth of HT1080 cells as described in Example 1. […] A 50-fold enhancement was seen after it was fused to human IgG1.

T1 sequence (P06756 31-889 limits assumed): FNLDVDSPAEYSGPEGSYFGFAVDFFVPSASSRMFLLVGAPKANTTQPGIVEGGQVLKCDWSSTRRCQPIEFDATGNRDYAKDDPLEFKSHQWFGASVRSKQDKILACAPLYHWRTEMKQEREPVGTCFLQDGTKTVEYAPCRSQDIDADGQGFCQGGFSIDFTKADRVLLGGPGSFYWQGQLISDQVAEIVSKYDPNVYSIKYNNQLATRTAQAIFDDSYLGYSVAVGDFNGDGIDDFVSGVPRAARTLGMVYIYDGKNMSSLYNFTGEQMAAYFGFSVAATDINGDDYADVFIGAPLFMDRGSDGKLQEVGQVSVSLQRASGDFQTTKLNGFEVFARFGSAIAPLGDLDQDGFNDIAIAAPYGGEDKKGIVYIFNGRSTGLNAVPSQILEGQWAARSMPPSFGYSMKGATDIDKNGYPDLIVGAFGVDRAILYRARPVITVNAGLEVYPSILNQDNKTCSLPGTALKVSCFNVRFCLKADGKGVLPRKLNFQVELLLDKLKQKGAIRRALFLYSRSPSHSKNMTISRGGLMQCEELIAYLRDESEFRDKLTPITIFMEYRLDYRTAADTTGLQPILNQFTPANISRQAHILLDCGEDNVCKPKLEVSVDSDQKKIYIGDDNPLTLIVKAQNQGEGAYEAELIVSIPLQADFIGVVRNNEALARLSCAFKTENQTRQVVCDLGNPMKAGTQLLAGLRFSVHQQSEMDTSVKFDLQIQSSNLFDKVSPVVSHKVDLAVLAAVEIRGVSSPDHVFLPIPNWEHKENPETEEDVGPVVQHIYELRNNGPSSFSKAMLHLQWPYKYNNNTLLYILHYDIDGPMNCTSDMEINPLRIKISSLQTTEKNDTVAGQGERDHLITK
T1 sequence (P06756 891-1048 partner limits assumed): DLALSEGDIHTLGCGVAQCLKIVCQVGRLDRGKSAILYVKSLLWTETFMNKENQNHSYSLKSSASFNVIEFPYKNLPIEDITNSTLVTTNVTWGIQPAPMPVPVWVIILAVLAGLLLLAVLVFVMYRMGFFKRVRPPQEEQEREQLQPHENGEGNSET
T1 sequence (P05106 27-788): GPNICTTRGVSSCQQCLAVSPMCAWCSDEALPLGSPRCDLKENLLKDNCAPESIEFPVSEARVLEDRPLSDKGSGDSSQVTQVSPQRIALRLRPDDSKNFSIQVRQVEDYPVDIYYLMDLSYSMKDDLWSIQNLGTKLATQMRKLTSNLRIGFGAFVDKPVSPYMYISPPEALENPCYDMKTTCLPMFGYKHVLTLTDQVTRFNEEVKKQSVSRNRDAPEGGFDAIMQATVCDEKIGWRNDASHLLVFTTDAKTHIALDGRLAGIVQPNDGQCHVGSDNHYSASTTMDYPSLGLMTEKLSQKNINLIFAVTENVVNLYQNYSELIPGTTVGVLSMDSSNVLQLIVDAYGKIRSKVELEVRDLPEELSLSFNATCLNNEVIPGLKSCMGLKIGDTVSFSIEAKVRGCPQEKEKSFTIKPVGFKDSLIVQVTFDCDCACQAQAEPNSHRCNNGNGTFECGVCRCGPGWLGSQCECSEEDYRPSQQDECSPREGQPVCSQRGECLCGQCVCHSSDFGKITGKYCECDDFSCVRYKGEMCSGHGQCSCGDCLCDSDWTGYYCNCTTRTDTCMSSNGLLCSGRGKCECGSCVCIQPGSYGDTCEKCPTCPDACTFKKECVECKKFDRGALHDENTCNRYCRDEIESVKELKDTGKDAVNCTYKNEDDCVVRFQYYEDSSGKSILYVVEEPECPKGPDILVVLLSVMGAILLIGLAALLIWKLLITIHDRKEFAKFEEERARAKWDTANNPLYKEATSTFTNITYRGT

Row | Substance | binding to human αvβ3 (human αvβ3) | inhibition of fibrinogen-ru binding to GPIIb/IIIa (GPIIb/IIIa) | IC100 (HT1080 cells) [µM]
1 | Echistatin-Fc: echistatin fused via a 5 glycine linker to the C-terminus of the Fc portion of human IgG1 (SEQ ID NO: 109) | binds with high affinity | inhibition | 
2 | YIGSRYIGSRYIGSR [(YIGSR)3] |  |  | 2.9
